± gives the uncertainty stated by the source.
Experiment: amyloid nucleation score (Sup35N fusion, yeast selection) (log enrichment); library NNK3; higher = more nucleation; inactive = no reads after selection
Procedure, shortened: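 The nucleation score equals the log enrichment of output over input reads from DiMSum, centred on the mode score of non-aggregating sequences. It was computed only for sequences with 100 or more input reads. The reads came from Illumina sequencing of plasmid inserts from psi-negative yeast expressing Sup35N fused to peptides of 20 random codons, induced with 100 μM copper sulfate for 24 hours and grown 7 days at 30°C without adenine and uracil.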

## GWMNACT
  amyloid nucleation score: 0.356 ± 0.34

## YSFVAVSSFDREHSRIFGVS
  amyloid nucleation score: inactive

## VCADIVLPQMDLPGSSGREK
  amyloid nucleation score: inactive

## FLISIWGGIGNDNVSVVGVG
  amyloid nucleation score: inactive

## RILLNANRYTMPSGVYDHRA
  amyloid nucleation score: inactive

## STKPFSYYCLRYHRTVTALL
  amyloid nucleation score: inactive

## AVLWIVSGGTYESVDLNYWC
  amyloid nucleation score: 0.837 ± 0.13

## ALMLDIFGRCTLRFRISGHG
  amyloid nucleation score: inactive

## QLRRCLEMARYSKARFRNCM
  amyloid nucleation score: inactive

## TLRMTWALSIRLSPLL
  amyloid nucleation score: inactive

## GKDKLEGKEGGVSCDGNLRP
  amyloid nucleation score: inactive

## YHMVCNCDWVGVAFYVSYGR
  amyloid nucleation score: 1.91 ± 0.065

## QIMIIISMRVSNMCGVSYLG
  amyloid nucleation score: inactive

## LRGYLHWLCSECSVLVSAVA
  amyloid nucleation score: inactive

## HCAMCWGILEFEISMFAMEW
  amyloid nucleation score: inactive

## PLSLDFVDVARFSGRTGCWF
  amyloid nucleation score: inactive

## QGFFRFSLVSAKRACKLDYS
  amyloid nucleation score: inactive

## FGSLPRQIMCMPA
  amyloid nucleation score: inactive

## IFYFHQFNCMPGLAFTSVIG
  amyloid nucleation score: inactive

## IRSMGRPTRKLCEPGFSALE
  amyloid nucleation score: inactive

## FYKVYSVRLEHFCKCGIECN
  amyloid nucleation score: inactive

## FLGIDAPDWSMVSKAIGRMG
  amyloid nucleation score: inactive

## ISMDRYHNTRHSVNRILLTC
  amyloid nucleation score: inactive

## VGLWYSDIISVFCLNLMRLV
  amyloid nucleation score: inactive

## YWASARTRSGYFDVNKFSGG
  amyloid nucleation score: inactive

## CVEVLWERPSGTRAGMVGLL
  amyloid nucleation score: -0.792 ± 1.4

## CPESCSN
  amyloid nucleation score: inactive

## ERFIKN
  amyloid nucleation score: inactive

## QIQGMNSQKRLRLKKP
  amyloid nucleation score: inactive

## IANRKSGMKSTRKKESWH
  amyloid nucleation score: inactive

## IPSNHSINRCYLDIWAQFLG
  amyloid nucleation score: inactive

## HLWHSVWYALRDSPSLGFFI
  amyloid nucleation score: inactive

## IYWDTRLGFCAYAKC
  amyloid nucleation score: inactive

## YYKRYGGYPGNQHMSVGHRF
  amyloid nucleation score: inactive

## LVEIVLYWSRVWYWTRGSNV
  amyloid nucleation score: inactive

## KGLSIIWMGQFGGAEFRITG
  amyloid nucleation score: inactive

## SLYHSLSGYHFCISMLL
  amyloid nucleation score: inactive

## LDVMTCNRLKVTVDFMCMNA
  amyloid nucleation score: inactive

## ALQYGNHRGCSYGCMITFVR
  amyloid nucleation score: inactive

## FSCDHLGWLVVSVCSGLRWL
  amyloid nucleation score: inactive

## LNIQFFINLALAEGFLYNRK
  amyloid nucleation score: 2.97 ± 0.084

## CICLVDPERLKDKTI
  amyloid nucleation score: inactive

## IGLRLVATLIDLRNADIGYG
  amyloid nucleation score: inactive

## NFLGAFRIPRLLRSLVALYL
  amyloid nucleation score: inactive

## QCFCILDFMYWIHARSIM
  amyloid nucleation score: inactive

## KKFGSYEWSRI
  amyloid nucleation score: inactive

## ATIIPICSHLIDHSVSLDQG
  amyloid nucleation score: inactive

## GTLWNSIFACVFQCSERSIM
  amyloid nucleation score: inactive

## TDMMMFICE
  amyloid nucleation score: inactive

## ITSEIMAIWFDICKAWDLCV
  amyloid nucleation score: inactive

## RLPLPL
  amyloid nucleation score: inactive

## RHRFSTSGRYFVSIRLVSSF
  amyloid nucleation score: inactive

## FYYSWSVFCICMYR
  amyloid nucleation score: inactive

## QSIARWTVLSFSWRTTSRKS
  amyloid nucleation score: -0.416 ± 1.2

## VAPLAILDRKSKSLVGNNMA
  amyloid nucleation score: inactive

## INLLVSVKGWYYVAPTAWYE
  amyloid nucleation score: 1.16 ± 0.15

## RCYVNYIRTYICAYCFAVNE
  amyloid nucleation score: 2.39 ± 0.074

## TCYFVYTRFFWGDRESKSTF
  amyloid nucleation score: inactive

## HMSQYGRLCKMATLTFT
  amyloid nucleation score: inactive

## FERDVFDQYEVVQWGARGDG
  amyloid nucleation score: inactive

## NTIRKKNLLFQAWLC
  amyloid nucleation score: inactive

## NVSQFISIGVVITFKMLLVW
  amyloid nucleation score: -0.478 ± 0.68

## TPNRGDFWITCSGGVGVWYG
  amyloid nucleation score: inactive

## YVSRDVGNRNATSY
  amyloid nucleation score: inactive

## SYGVGWVYTEFGNLLRSFGL
  amyloid nucleation score: inactive

## IIHLNLSNVWYTPSGWYRVC
  amyloid nucleation score: 2.3 ± 0.063

## LSMCAVFDRYLWVGSGDITY
  amyloid nucleation score: inactive

## LYYNYRGGYVYKNRDEVTLF
  amyloid nucleation score: inactive

## GGLYKYKNRTRLFMSWRVSR
  amyloid nucleation score: inactive

## VHYKVKGSLPFCCGYFNSLW
  amyloid nucleation score: 1.67 ± 0.079

## LFEWMRCMTVFMVGAAYAAT
  amyloid nucleation score: inactive

## FWMILMDMLFMRLGSL
  amyloid nucleation score: inactive

## FFMPFRNLIHKLVTTEELYR
  amyloid nucleation score: inactive

## CSALC
  amyloid nucleation score: inactive

## ELLWGPMGSNWKSLVVYFSH
  amyloid nucleation score: inactive

## GNCTSVLDPSELVVYHCEGS
  amyloid nucleation score: inactive

## ISWWAMCACSARKVRF
  amyloid nucleation score: inactive

## ISVRFLCNYCRRVYIRRCAV
  amyloid nucleation score: inactive

## TTEEL
  amyloid nucleation score: inactive

## MLREMY
  amyloid nucleation score: inactive

## DPTILSKVMLMEDTVKAREL
  amyloid nucleation score: inactive

## GSWMCVMLRVFCSCSWLYCS
  amyloid nucleation score: -0.018 ± 0.93

## NLAFP
  amyloid nucleation score: inactive

## AWYKFVGRVMRDPYMEARLA
  amyloid nucleation score: inactive

## ILILFYLRFHNIRRYTCTFR
  amyloid nucleation score: inactive

## LLGLCRVLW
  amyloid nucleation score: 1.31 ± 0.097

## TATYKSYCTL
  amyloid nucleation score: inactive

## MSKHF
  amyloid nucleation score: inactive

## NYYLGETLA
  amyloid nucleation score: inactive

## SNRGYTKRYF
  amyloid nucleation score: inactive

## WYSCAKMANIHIVSVVTTST
  amyloid nucleation score: inactive

## VENVDYFCDFGTISIL
  amyloid nucleation score: 1.66 ± 0.087

## GLLLVIFNGFGFNDYEEFGM
  amyloid nucleation score: inactive

## MCFGKYLSL
  amyloid nucleation score: inactive

## TFFFVVGHSNDEVYSCVKTV
  amyloid nucleation score: 1.12 ± 0.11

## LGSAGYSSQGLWCLVLRVPL
  amyloid nucleation score: inactive

## RLTACASYIGINGRSRN
  amyloid nucleation score: inactive

## TVRYVVSASTWHMSLQSPTL
  amyloid nucleation score: 1.33 ± 0.11

## TSYYIYTVSFDGCCSNLRTV
  amyloid nucleation score: 1.56 ± 0.13

## SYWYACGKYADNSMER
  amyloid nucleation score: inactive

## ESVGLISWFRVPIYSN
  amyloid nucleation score: inactive

## NWRLFWG
  amyloid nucleation score: 1.6 ± 0.077

## LRLNKLCEVFAPLTSVLAGT
  amyloid nucleation score: inactive

## LDTSNMPTYGLKSEVSVIAR
  amyloid nucleation score: inactive

## YNFVPVFHVNMSVFLCILVL
  amyloid nucleation score: 2.43 ± 0.072

## AMVKEFWVDSRHFIDRYSKC
  amyloid nucleation score: inactive

## LLQICGVYYYPIVSYSPDDF
  amyloid nucleation score: inactive

## NMRTCSIGSKPIVKFTYMCG
  amyloid nucleation score: 1.31 ± 0.15

## VNYDSVLYLVFLCIYLHKNR
  amyloid nucleation score: inactive

## LSKHEAGTCRLVNDRTHYKA
  amyloid nucleation score: inactive

## TVHSHKWCSLVGGPIRISWT
  amyloid nucleation score: inactive

## IEWLI
  amyloid nucleation score: inactive

## ASCAWNGWTLIFLFYRCYFQ
  amyloid nucleation score: inactive

## YRDCISEGLKLSNWNELLGK
  amyloid nucleation score: inactive

## SPALQMWKACTWLNRTLSPV
  amyloid nucleation score: 0.582 ± 0.15

## GRSGYH
  amyloid nucleation score: inactive

## RLFTTLVRDLTENCIRFLWT
  amyloid nucleation score: inactive

## NFLFMCSPYYLWIFDPGCYL
  amyloid nucleation score: 2.8 ± 0.074

## WYERGG
  amyloid nucleation score: inactive

## HYTVDANNIVFYILH
  amyloid nucleation score: 3.11 ± 0.076

## KVTFKYLLKSVSLGQGTT
  amyloid nucleation score: 0.341 ± 0.28

## MFMVHQVDTERW
  amyloid nucleation score: inactive

## GLSHESTYKEEFESSATSGV
  amyloid nucleation score: inactive

## KYEMTIPSSVLRALSNKHWL
  amyloid nucleation score: -0.539 ± 1.4

## MTCTTCACDDICSNKLVLFH
  amyloid nucleation score: inactive

## LNYGSDLDSIYYSFTL
  amyloid nucleation score: -0.896 ± 0.96

## VLKFFLTAMVD
  amyloid nucleation score: inactive

## WGFVWRVFLLKMC
  amyloid nucleation score: inactive

## WTKKFRVMTACLLEWYVDEK
  amyloid nucleation score: inactive

## TYFYAFALTVPYSWHSEDRM
  amyloid nucleation score: 2.04 ± 0.054

## NQVISFWYSIQYCYEYSRNS
  amyloid nucleation score: inactive

## FNSKRW
  amyloid nucleation score: inactive

## RSMVGWACYLSWRFA
  amyloid nucleation score: inactive

## WLVAEFQTYPMTQHLYVSMR
  amyloid nucleation score: inactive

## IVVNT
  amyloid nucleation score: inactive

## TVACNVFYQLCVE
  amyloid nucleation score: inactive

## KICAK
  amyloid nucleation score: inactive

## TVWELM
  amyloid nucleation score: -0.068 ± 0.33

## STGRRPTWATQRLWLWRQQL
  amyloid nucleation score: -0.091 ± 0.87

## VKLALRTAFVGSQVYRILRA
  amyloid nucleation score: -0.076 ± 0.88

## MRDMIINMVSGETNGLCVKP
  amyloid nucleation score: inactive

## SYRLSYLYPSTHHYLLNCLL
  amyloid nucleation score: inactive

## PLYQSYYHLEPSCDWCYSSR
  amyloid nucleation score: -0.144 ± 0.28

## CCFTLGAVSNCSLRGNSQTL
  amyloid nucleation score: -1.2 ± 1.9

## EDNTKLRSWGELLGVCGKLS
  amyloid nucleation score: inactive

## IIHEFFSTQLILYDCIDRWF
  amyloid nucleation score: inactive

## VCANLSWPFLSNTLLFVCLG
  amyloid nucleation score: inactive

## GLDRI
  amyloid nucleation score: inactive

## ISWTYVRYYGHKKCCLFYHF
  amyloid nucleation score: inactive

## FIGMDIIKYLS
  amyloid nucleation score: 0.631 ± 0.16

## CGYCVFPFLNGITVGGRFGH
  amyloid nucleation score: 1.29 ± 0.11

## NLVWICFFNGRNYLSMRDRA
  amyloid nucleation score: 1.34 ± 0.15

## CDAWILFFWHVVNISYRVDK
  amyloid nucleation score: inactive

## DTDWGRMWQGGSVYGYAFCA
  amyloid nucleation score: inactive

## MDSLGW
  amyloid nucleation score: inactive

## AVTDTNLLLFDVGYESLVHS
  amyloid nucleation score: inactive

## DYYIAPRVPYHVTTWNKDYL
  amyloid nucleation score: inactive

— the supplement of paper PMC12042874
